Data: patent EP3342782A1

Each substance was assayed against extracellular region of human V158 FcγRIIIa with C-terminal 6x His-tag and GST-tag (human) (UniProt P08637) (assay: SPR; fold vs WT).

Row | Fold WT [fold] | Substance
1 | 5.5 | E258H alemtuzumab (antibody)
2 | 1.77 | E258Y alemtuzumab (antibody)
3 | 384 | E272H alemtuzumab (antibody)
4 | 2.56 | E283L alemtuzumab (antibody)
5 | 5.66 | H268D alemtuzumab (antibody)
6 | 11.2 | I332D alemtuzumab (antibody)
7 | 22.4 | K246H alemtuzumab (antibody)
8 | 7.07 | K246Y alemtuzumab (antibody)
9 | 3.13 | K326E alemtuzumab (antibody)
10 | 1.41 | R255Y alemtuzumab (antibody)
11 | 3.28 | S239E alemtuzumab (antibody)
12 | 2.62 | S267E alemtuzumab (antibody)
13 | 1.86 | T260H alemtuzumab (antibody)

What follows are substances tested against human FcγRIIIa on PBMCs expressing heterozygous V158/F158 FcγRIIIa (human) (UniProt P08637) (assay: cell-based or functional assay).

Row | ADCC log(EC50) | Substance
14 | 0.49 log(ng/ml) | S239D/I332E alemtuzumab (antibody)
15 | 0.6 log(ng/ml) | V264I/I332E alemtuzumab (antibody)
